# Tested on: K4 kissing-loop RNA reporter
# Assay: apparent KD of K4 kissing-loop reporter; higher = weaker reporter binding
# Details: Eterna round: R107; input ligand: FMN 200 uM
# Procedure: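 RNA-MaP round R107: designed RNA switches with theophylline, tryptophan, arginine or FMN aptamers are transcribed on-chip within common flanks. They are titrated with a labelled K4 kissing-loop RNA reporter in RNA-MaP buffer (100 mM Tris pH 7.5, 80 mM KCl, 4 mM MgCl2), without ligand or with the indicated ligand. Median apparent KD per design.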
# 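Note: bound reporter read as fluorescence of individual clusters on recovered sequencing chips by microscopy, with normalized cluster intensities fitted with a binding model.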
row,Sequence,apparent KD of K4 kissing-loop reporter [nM]
1,GCAUCCAUGGCAGGAUAUAGGUUCGUGGAGUGAUGUUCCAUAACCCGAGUGAUGUUCGUUAUCCACCUAGAAGGGCCAUGGAUGC [whbob_Ex_FMNB__2th211],212
2,GGUAGCAUGGCGGCCGCCACUCUUCAUUAGUGAUGUUAAUGCCGAGUGGGCAAACUCCGCCAGGAGAGGACCGGGCCAUGCUACC,82.6
3,GUAUAAGUGGGCGAUACCAGCUGUCGGUAGUGAUGUUAUUCAGCAGUCAGGAAGUUCGCUAGCCCUUGGCAGCGCCAGUGGUGAC [theeternabot_exclusion_KL_Theo_B_19],383
4,AGGAAGUGAGAAGGAUAUUACACUCGGAAGCGCUAGUGAUGUUAGCAUAGAAACAAGGGAACAUGGUAAGAAGGUCUUACAAUGA [theeternabot_sameState_KL_FMN_B_2],76.6
5,GCCGUAGAUGGAAGGAGCGAGUCCAAACCAUAUUGCUGAAAAUUCGAGUGAUGUUCGUAAGCUCAGGUAGGUCGCCAUCUACGGC,206
6,GAUUCAGUGAUGUUGGAAGGCGAGCGGGAUACCAGCCGAGACUCAGGCCCUUGGCAGCCCACAUAUCCCAGGUAGAUAGUCGAUC [Same State - Theophylline A (Freestyle 9)],185
7,GGAUUGCCAGUGAUGUUGGCAUAAUCUGAAGGAGCGCGUGAAAACGCAGGUAGGUCGCAGAACCUUGCCAACUGAUCGAAAGAUC [Ex Arginine A K4 30],145
8,GAACCAGAGGUUGCUGCGGGUUCCAGAGAUACCAGCCGUAUUGAAGGCCCUUGGCAGCUCGAGUGAUGUUCGAGCCGCCUCUGGC [Antius],118
9,AAGAGGUAGGCGGCCGCCACUAGUUGUGAACACAUACAAGCCAGUGAUGUUGGUAUGGUGGGCGGUAGGACCGGGCCUACCUGAA [Exclusion - Tryptophan B (Freestyle 17)],230
10,GUGUGGAUCCGAAGGAGCGUCCGCAAUCCAGUGAUGUUGGGUGUUGGUUUUAGUAGACGAGGACAGGUAGGUCGCGGAUUUACAA [Same State Arginie B GF 23],133
11,UUACGAGUGAUGUUCGAAUAAAUCCAUUCAGAGGAUAUAGUAUUAACUAGAAGGCUGAAACCAACUUCGAGUCAUGUUCGAGGAU [Same State FMN A GF 2],271
12,GGGCCUCUGGCUGAUACCAGUGAUAAAGGGUAAGAGACAGGGAGUGAUGUUCCCUUUAGCCACCCUUGGCAGCAGUUUAAGUUUG [Exclusion Theophylline B GF 18],84.8
13,AGUGAUGUGGGAAGGAGCGGUACAUGACUUCAGUGAUGUUGAAGUGAUGAUUUAGUGAUGUGCCAGGUAGGUCGCCUAGAUGUUA [KL-XARG-B7],79.8
14,AGUGAAGUUAGUGAUGUGUGAGUUUGGGAAGGAGCGCCGAGAACGGCAGGUAGGUCGCCCAGUGAUGUUGGUGUAAAGAUGAGAG [whbob_Ex_Arginine_A_2t121],275
15,AAUUGAGUGACGGCCGCCACUAGAGUGAUUUUUUUGUUUGAGUGAUGUUUUGAUGUUUGAUGUUGUAGGACCGGGUUGAGUGAUG [vvrvmullin],377
16,AUUAUAAAGGCGGCCGCCACUAGUGAUGUUAGUGACUUAUGUAUUAUCAUAAGAAUAAAAUAAAAUAGGACCGGGCCAAAAUAUU [AstrosExTryB#3],527
17,CCUCACGUAGGACUAGUGAUGUUAGACUACCGAGGACCGGUACGGCCGCCACUCGUCGUACAAGAUAACCUUCCGCCAGUAUACG,110
18,UAAUAUAACCGAAGGAGCGCGUGGGCGCAGUGAUGUUGCGCCCGACAUCACUUCAACUAAACGCAGGUAGGUCGCGGUAAUAAUA [Arginine B (Excl) V1],134
19,GUGAAUGGCUGAGCAGCCGUGGUACGAGAUACCAGUGAUUUCGAUCACCCUUGGCAGCUCGGCGUGAGUGAUGUUCACGCUACAC [Theo A SS t12a],273
20,AUUCAUGAGUGAUGUUCAUCGGCAGGAGAUACCAGCGAGUUAACCCGCCCUUGGCAGCUCAAGUAUAGGGACUCUGGCAUCGCCU [theeternabot_exclusion_KL_Theo_A_18],406
21,CAUGGAGUGAUGCUCCAUGAUCGGGCUUGGCAGGAUAUGGGAUCUUCCAGAAGGGCCGAUCCCAGCGAGUGAUGUUCGCUGGUCU [Exclusion FMN A GF 27],119
22,AGGUACAAAAGUACCGCUAGAUCCACGGAAGGAGCGGCCGAAAGGCCAGGUAGGUCGCCGGGCAGUGAUGUUGCCGGAUCUAGCA [Omei KL Arginine A SS A v2],194

row,Sequence,apparent KD of K4 kissing-loop reporter [nM]
1,AAGUGAUGUUGUAGUGAUGUUGUGAUGUUGCAGGAUAUAUAGUGAUGUAGAAGGGUAUGUGCAGUUUUCAUAUUUGAGUGUUGAU [mkkhmullin],85.2
2,ACACAGAGUUGCCGAGUGAUGUUCGGCUUACGAGGACCGGUACGGCCGCCACUCGUUACUCUGUGUUUUGGACACCAAGGCGUCG [Tionzaanon],651
3,UGGAUAUAGUGAUGUUAUAUAGAGAGUGAUACCAGUUUAGAGAAGAACCCUUGGCAGCAUAGAAGAGUAUCAUUGGAGAAGAAUG [ExTheophyl.Aq],243
4,UAGUCCUAGUGAUGGUUAUCACGUGGUGGGCGAGGACCGGUACGGCCGCCACUCGACUUUGCAGUGAUGUUGCAAUCCGGACAAU [Exclusion - Tryptophan A (Freestyle 17)],194
5,GAAGUACAGGCGGCCGCCACUAGUGAUGUUAGUGAUAAAAGAUAAAGUAUAUAUCGGCAUGUAGAUAGGACCGGGCCUGAUGGAG [uiiumullin],118
6,AGUGCCUGCCUUAGCCUUCCCAUCAACUUCCGAGGACCGGUACGGCCGCCACUCGGCCAUCGGGCUAGUGAUGUUACCUGGUGGA [theeternabot_sameState_KL_Trp_A_50],337
7,GUUACGCAUGGAAGGAGCGCUCUCCGGUUUAUUAACACAGUGAUGUUGUGAUUUUACCGAAAGCAGGUAGGUCGCCAUGUGUAAC [Ex Arginine B K4 12],356
8,UGAUACCAGACGGCCGCCACUCCUGCAAGUCAAAGACUUGCUAAGGAAAUCGUCCAGUGAUGUUGGAGGACCGGGUCUGGUAUCU [TrypBX 17 #SwitchBubble #Palindromic #StaticStem],931
9,AAUUCAGUGAUGUUGGAAGGCAAGCGGGAUACCAGCGGAGAAUAACGCCCUUGGCAGCCCAUAUAUCCCAAAUAGAUAAUAGUUC [Same State - Theophylline A (Freestyle 4)],345
10,UAUACGCUAGUGAUGUUGGCGAAGACUGAAGGAGCGUGCGAGAGUACAGGUAGGUCGCAGUCAGACAGAUUGUACCUGUCUUAUG [Arg A SS t10],268
11,CCAUCGCUAUUCGAUACCAGUCAUCACAUCUUUGGUGUGAUAAAGGAGUGAUGUUCCCAAGACCCUUGGCAGCGAAUAGUGAUGG [Theophylline B K4 11],293
12,AGAUUCGACACGGCCGCCACUCGUGGUGGAUUACCUAGUGUCGAAGUUGAGUGAUGUUCAACUACGAGGACCGGGUGUUGAGUCU [KL-XTryp-B7 #analogue],253
13,CCGAUGGGUACAGGAUAUGCCAGUGAUGUUGGUUUAGAUGGACCCAUAAGGAGACACCAGACGGAGGCAGAAGGGUAGCAAGGGA [Isonanti],127
14,AACUCUCAGGCACGCGAGUGAUGUUCGCGCCGAGGACCGGUACGGCCGCCACUCGGGCCUGAGAGAGGUUAUCAAAGAUAGCCAA [whbob_SS_tryp_A],306
15,UUAGCUCUAUAGAGCAAGAGGUAUACUGAUACCAGAGGCUAUAGCCUCCCUUGGCAGCGGAUCGAGUGAUGUUCGUAACCUCAUU [AK4.5 SS Theophylline A],616
16,AACUUAAUUUAUAAGCAGUGAUGUUGCUUACGAGGACCGGUACGGCCGCCACUCGAUCGCAUUUAUGUCUUCAAUUAAUUCAUUA [JR_ExcTryptoA_Sub016],178
17,CGUCACAAACCUAGUCAAGUGAUGUUUGGCCGAGGACCGGUACGGCCGCCACUCGCUCCUGUCACCCAUUCGUGUGUCGCGGACU [theeternabot_exclusion_KL_Trp_A_5],377
18,ACGUCCCGUUUACUCGUGGGUUAGGUCGAUACCAGUAUUCAAACUUACCCUUGGCAGCGACAUGAGUGAUGUUCAUGUGCGAAGA [KL-XTheo-A5 #analogue],114
19,AGAAAGAAGGCGGCCGCCACUCUGAUGGGCGAAAGCCCAUUUUUUUAGCAGUGAUGUUGCUUGUUGAGGACCGGGCCAAAGAAAU [2nd],179
20,UGUCAUUGGUCGGCCGCCACUUCAUAGAGAGUGAUGUUCUUAAAGACGGAUCGAAAGAUCUGUCGAAGGACCGGGACCGAUGACU [FiskerMod 9 - Jieux - Same State - Tryptophan B],997
21,GGAUAGGAUAGAGGAUAUGGUAGUGAUGUUACCAAACUGGUUAAACAUGUCAGAAAACUGGCAUGACCAGAAGGUUGUCCUAUCG [FmnBX 27 U9+U75],80.5

# Same assay, conditions: Eterna round: R107; input ligand: arginine 13.2 mM
row,Sequence,apparent KD of K4 kissing-loop reporter [nM]
1,GCAUCCAUGGCAGGAUAUAGGUUCGUGGAGUGAUGUUCCAUAACCCGAGUGAUGUUCGUUAUCCACCUAGAAGGGCCAUGGAUGC [whbob_Ex_FMNB__2th211],204
2,GGUAGCAUGGCGGCCGCCACUCUUCAUUAGUGAUGUUAAUGCCGAGUGGGCAAACUCCGCCAGGAGAGGACCGGGCCAUGCUACC,75.1
3,GUAUAAGUGGGCGAUACCAGCUGUCGGUAGUGAUGUUAUUCAGCAGUCAGGAAGUUCGCUAGCCCUUGGCAGCGCCAGUGGUGAC [theeternabot_exclusion_KL_Theo_B_19],324
4,AGGAAGUGAGAAGGAUAUUACACUCGGAAGCGCUAGUGAUGUUAGCAUAGAAACAAGGGAACAUGGUAAGAAGGUCUUACAAUGA [theeternabot_sameState_KL_FMN_B_2],71.6
5,GCCGUAGAUGGAAGGAGCGAGUCCAAACCAUAUUGCUGAAAAUUCGAGUGAUGUUCGUAAGCUCAGGUAGGUCGCCAUCUACGGC,184
6,GAUUCAGUGAUGUUGGAAGGCGAGCGGGAUACCAGCCGAGACUCAGGCCCUUGGCAGCCCACAUAUCCCAGGUAGAUAGUCGAUC [Same State - Theophylline A (Freestyle 9)],118
7,GGAUUGCCAGUGAUGUUGGCAUAAUCUGAAGGAGCGCGUGAAAACGCAGGUAGGUCGCAGAACCUUGCCAACUGAUCGAAAGAUC [Ex Arginine A K4 30],165
8,GAACCAGAGGUUGCUGCGGGUUCCAGAGAUACCAGCCGUAUUGAAGGCCCUUGGCAGCUCGAGUGAUGUUCGAGCCGCCUCUGGC [Antius],96.8
9,AAGAGGUAGGCGGCCGCCACUAGUUGUGAACACAUACAAGCCAGUGAUGUUGGUAUGGUGGGCGGUAGGACCGGGCCUACCUGAA [Exclusion - Tryptophan B (Freestyle 17)],263
10,GUGUGGAUCCGAAGGAGCGUCCGCAAUCCAGUGAUGUUGGGUGUUGGUUUUAGUAGACGAGGACAGGUAGGUCGCGGAUUUACAA [Same State Arginie B GF 23],104

# From the supplement of paper PMC9170038
